In PMC10288911 (2023):

Legend:
[1] = molecular target: 6×His-tag cleaved FcRn/β2m (UniProt P55899 24-365; P61769 21-119); test: BLI; pH 7.4; IgG immobilised
[2] = molecular target: 6×His-tagged FcRn/β2m (UniProt P55899 24-365; P61769 21-119); test: BLI; pH 7.4; FcRn immobilised
[3] = molecular target: FcRn/β2m heterodimers (SPR analyte) (UniProt P55899 24-365; P61769 21-119); test: SPR; pH 7.4; IgG captured by gp120
Sequence of FcRn/β2m heterodimers (SPR analyte) (P55899 24-365, chain 1 of 2): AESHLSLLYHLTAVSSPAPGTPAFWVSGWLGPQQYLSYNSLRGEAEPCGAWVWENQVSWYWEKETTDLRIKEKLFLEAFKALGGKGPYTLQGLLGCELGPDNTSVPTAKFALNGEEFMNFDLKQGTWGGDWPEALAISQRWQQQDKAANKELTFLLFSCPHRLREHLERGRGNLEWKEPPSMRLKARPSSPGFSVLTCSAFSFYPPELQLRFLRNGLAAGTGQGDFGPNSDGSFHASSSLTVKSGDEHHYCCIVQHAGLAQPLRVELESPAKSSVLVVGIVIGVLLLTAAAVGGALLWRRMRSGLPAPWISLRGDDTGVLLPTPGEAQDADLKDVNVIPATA
Sequence of FcRn/β2m heterodimers (SPR analyte) (P61769 21-119, chain 2 of 2): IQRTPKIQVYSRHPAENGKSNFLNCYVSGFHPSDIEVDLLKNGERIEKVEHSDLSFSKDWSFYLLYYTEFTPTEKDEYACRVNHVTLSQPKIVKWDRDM

Sequence of 6×His-tag cleaved FcRn/β2m (P55899 24-365, chain 1 of 2): as the sequence (P55899 24-365, chain 1 of 2) above
Sequence of 6×His-tag cleaved FcRn/β2m (P61769 21-119, chain 2 of 2): as the sequence (P61769 21-119, chain 2 of 2) above
Sequence of 6×His-tagged FcRn/β2m (P55899 24-365, chain 1 of 2): as the sequence (P55899 24-365, chain 1 of 2) above
Sequence of 6×His-tagged FcRn/β2m (P61769 21-119, chain 2 of 2): as the sequence (P61769 21-119, chain 2 of 2) above

Binder	Kd [1] [nM]	Kd [2] [µM]	Kd [3] [µM]
VRC07-523LS.v1 (antibody) chain 1: QVRLSQSGGQMKKPGDSMRISCRASGYEFINCPINWIRLAPGKRPEWMGWMKPRFGAVSYARQLQGRVTMTRQLSQDPDDPDWGTAFLELRSLTSDDTAVYFCTRGKYCTARDYYNWDFEHWGQGTPVTVSS chain 2: LTQSPGTLSLSPGETAIISCRTSQYGSLAWYQQRPGQAPRLVIYSGSTRAAGIPDRFSGSRWGPDYNLTISNLESGDFGVYYCQQYEFFGQGTKVQVD	180	0.93	10
VRC07-523LS.v34 (antibody) chain 1: QVRLSQSGGQMKKPGDSMRISCSASGYEFINCPINWIRLAPGKRPEWMGWMKPRFGAVSYARQLQGRVTMTRQLSQDPDDPDWGTAFLELRSLTSDDTAVYFCTRGSYCTARDYYNWDFEHWGQGTPVTVSS chain 2: LTQSPGTLSLSPGETAIISCETSQYGSLAWYQQRPGQAPRLVIYSGSTRAAGIPDRFSGSRWGPDYNLTISNLESGDFGVYYCQQYEFFGQGTKVQVD	170	6	6.3
VRC07-523LS.v37 (antibody) chain 1: QVRLSQSGGQMKKPGDSMRISCQASGYEFINCPINWIRLAPGKRPEWMGWMKPRFGAVSYARQLQGRVTMTRQLSQDPDDPDWGTAFLELRSLTSDDTAVYFCTRGQYCTARDYYNWDFEHWGQGTPVTVSS chain 2: LTQSPGTLSLSPGETAIISCETSQYGSLAWYQQRPGQAPRLVIYSGSTRAAGIPDRFSGSRWGPDYNLTISNLESGDFGVYYCQQYEFFGQGTKVQVD	180	5.4	9.6
VRC07-523LS.v23 (antibody) chain 1: QVRLSQSGGQMKKPGDSMRISCRASGYEFINCPINWIRLAPGKRPEWMGWMKPRFGAVSYARQLQGRVTMTRQLSQDPDDPDWGTAFLELRSLTSDDTAVYFCTRGKYCTARDYYNWDFEHWGQGTPVTVSS chain 2: LTQSPGTLSLSPGETAIISCSTSQYGSLAWYQQRPGQAPRLVIYSGSTRAAGIPDRFSGSRWGPDYNLTISNLESGDFGVYYCQQYEFFGQGTKVQVD	170	1.6	3.8
